Here are results for 21 molecules from patent US20210292393A1 (published 2021).

Changes are numbered by the printed parent chain. Some results are limits rather than exact numbers.

B1: antibody 368 (antibody, V domains shown)
V domain 1: QITLKESGPTLVKPTETLTLTCAFSGFSLTKTGEAAGWIRQAPGRALEWVTVIFWDDDKRYSPSLQNRLTVTKDTSKNVVVLTMTNVDPVDTATYFCWAMGGPGKEFFGQGTRVAVSS
V domain 2: QSVLTQPPSVSGAPGQRVTVSCTGTSSSIGPYSDVHWYQHIPGKAPRLLIFGTSNRPSGVPARFSGSKSGSSASLVIAGLQAEDEADYYCQSYDSSLGEIYVFGTGTTVTVL
B2: antibody 387 (antibody, V domains shown)
VH: QVQLVESGGGVVQPGRSLRLSCAASGFTFSSYGMHWVRQAPGKGLEWVAVISYDGSNKYYADSVKGRFTISRDNSKNTLYLQMNSLRAEDTAVYYCAKDDTKNYGDLDIDYWGQGTLVTVSS
VL: SYELTQPSSVSVSPGQTARITCSGDVLAKKYARWFQQKPGQAPVLVIYKDSERPSGIPERFSGSSSGTTVTLTISGAQVEDEADYYCYSAADNNLGVFGGGTKLTVL
B3: antibody 360 (antibody, V domains shown)
VH: QVQLVESGGGVVQPGRSLRLSCAASGFTFSSYAMHWVRQAPGKGLEWVAVISYDGSNKYYADSVKGRFTISRDNSKNTLYLQMNSLRAEDTAVYYCAKGKNSGSYFFAFDIWGQGTMVTVSS
VL: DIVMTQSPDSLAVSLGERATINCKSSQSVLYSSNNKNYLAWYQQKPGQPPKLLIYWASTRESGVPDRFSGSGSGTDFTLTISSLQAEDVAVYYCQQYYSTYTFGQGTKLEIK
B4: antibody 381 (antibody, V domains shown)
VH: QVQLVESGGGVVQPGRSLRLSCAASGFTFSSYAMHWVRQAPGKGLEWVAVISYDGSNKYYADSVKGRFTISRDNSKNTLYLQMNSLRAEDTAVYYCARDRQYYDILTGYYLPTSEYYFDYWGQGTLVTVSS
VL: DIQMTQSPSSVSASVGDRVTITCRASQGISSWLAWYQQKPGKAPKLLIYAASSLQSGVPSRFSGSGSGTDFTLTISSLQPEDFATYYCQQANSFPPTFGGGTKVEIK
B5: antibody 357 (antibody, V domains shown)
VH: QVQLVQSGAEVKKPGSSVKVSCKASGGTFSSYAISWVRQAPGQGLEWMGRIIPILGIANYAQKFQGRVTITADKSTSTAYMELSSLRSEDTAVYYCARGPIAVAGIGPWFDPWGQGTLVTVSS
VL: QSVLTQPPSVSAAPGQKVTISCSGSSSNIGNNYVSWYQQLPGTAPKLLIYDNNKRPSGIPDRFSGSKSGTSATLGITGLQTGDEADYYCGTWDSSLSAVVFGGGTKLTVL
B6: antibody 358 (antibody, V domains shown)
VH: QVQLVESGGGVVQPGRSLRLSCAASGFNLNSYAMHWVRQASGKGLEWVSLMSYDGSIKYYADSVKGRFTVSGDNSRNTLFLQMNSLRPDDSALYYCVRGGVSGPNSFDLWGQGTTVTVSS
VL: DVVMTQSPLSLPVTLGQPASISCRSSQSLVYSDGSTYVNWFQQRPGQSPRRLIYKVSNRDSGVPDRFSGSGSGTDFALKISRVEAEDVGVYYCMQGTHWPVTFGQGTKVEIK
B7: antibody 359 (antibody, V domains shown)
VH: QVQLVESGGGVVQPGRSLRLSCAASGFTFSSYAMHWVRQAPGKGLEWVAVISYDGSNKYYADSVKGRFTISRDNSKNTLYLQMNSLRAEDTAVYYCAYSGNYWYFDLWGRGTLVTVSS
VL: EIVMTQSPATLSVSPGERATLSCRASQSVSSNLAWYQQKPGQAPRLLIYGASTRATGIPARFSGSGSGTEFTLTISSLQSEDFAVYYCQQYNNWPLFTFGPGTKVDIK
B8: antibody 410 (antibody, V domains shown)
VH: QVQLVQSGAEVKKPGASVKVSCKASGYTFTSYGISWVRQAPGQGLEWMGWISAYNGNTNYAQKLQGRVTMTTDTSTSTAYMELRSLRSDDTAVYYCARGRITIFGVEYYYGMDVWGQGTTVTVSS
VL: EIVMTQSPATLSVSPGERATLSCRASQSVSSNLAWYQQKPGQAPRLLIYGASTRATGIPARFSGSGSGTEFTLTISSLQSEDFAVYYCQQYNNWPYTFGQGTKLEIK
B9: antibody 400 (antibody, V domains shown)
VH: QVQLVESGGGVVQPGRSLRLSCAASGFTFSSYGMHWVRQAPGKGLEWVAVISYDGSNKYYADSVKGRFTISRDNSKNTLYLQMNSLRAEDTAVYYCAKAIDILTGYGPGGMDVWGQGTTVTVSS
VL: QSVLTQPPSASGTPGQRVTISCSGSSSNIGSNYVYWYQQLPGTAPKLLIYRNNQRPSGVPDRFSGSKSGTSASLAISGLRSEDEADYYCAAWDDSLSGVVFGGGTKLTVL
B10: antibody 394 (antibody, V domains shown)
VH: QVQLVQSGAEVKKPGASVKVSCKASGYTFTGYYMHWVRQAPGQGLEWMGWINPNNGGTNSAQKFQGRVTMTRDTSISTAYMELNRLRSDDTAVYYCARDITTTAGTDYYYGMDVWGQGTTVTVSS
VL: SYELTQPPSVSVSPGQTARITCSGDALPKQYAYWYQQKPGQAPVLVICKDSERPSGIPERFSGSSSGTTVTLTISGVQAEDEADYYCQSADSSGTYIVFGTGTKVTVL
B11: antibody 440 (antibody, V domains shown)
VH: EVQLLESGGGLVQPGGSLRLSCAASGFTFSSYAMSWVRQAPGKGLEWVSAISGSGVNTYHADSVKGRFTISRDNSRNTLYLQMSSLTAEDTAAYYCAKDFEAASGAYYYYGMDVWGQGTTVTVSS
VL: B10 VL with K29D, L45V, C48Y, S51R, S65N, G94A, I97V, T101G, V105L
B12: antibody 441 (antibody, V domains shown)
VH: EVQLVESGGGVVRPGGSLRLSCAASGFTFGDYGMSWVRQAPGKGLEWVSGINWNGGSTGYADSVKGRFTISRDNAKNSLYLQMNSLRAEDTALYYCASDLVRGVIGFDYWGQGTLVTVSS
VL: B10 VL with C48Y, T95I, Y96T, I97G, T101G, V105L
B13: antibody 397 (antibody, V domains shown)
VH: QVQLVESGGGVVQPGRSLRLSCAASGFTFSSYGMHWVRQAPGKGLESVAVISYDGSNKYYADSVKGRFTISRDNSKNTLYLQMNSLRAEDTAVYYCAKEGQWELQGNAFDIWGQGTMVTVSS
VL: B10 VL with C48Y, A90G, I97R, T101G, V105L
B14: antibody 399 (antibody, V domains shown)
VH: QVQLVQSGAEVKKPGASVKVSCKASGYTFTSYGISWVRQAPGQGLEWMGWISAYNGNTNYAQKLQGRVTMTTDTSTSTAYMELRSLRSDDTAVYYCARDSGYDWAGGHYYYYGMDVWGQGTTVTVSS
VL: QSALTQPASVSGSPGQSITISCTGTSSDVGGYNYVSWYQQHPGKAPKLMIYEVSNRPSGVSNRFSGSKSGNTASLTISGLQAEDEADYYCSSYTSSSTLVVFGGGTKLTVL
B15: antibody 393 (antibody, V domains shown)
VH: QVQLVESGGGVVQPGRSLRLSCAASGFTFSSYAMHWVRQAPGQGLEWVAVISYDGSNKYYADSVKGRFTISRDNSKNTLYLQMNSLRAEDTAVYYCARAGSGSRHYYGMDVWGQGTTVTVSS
VL: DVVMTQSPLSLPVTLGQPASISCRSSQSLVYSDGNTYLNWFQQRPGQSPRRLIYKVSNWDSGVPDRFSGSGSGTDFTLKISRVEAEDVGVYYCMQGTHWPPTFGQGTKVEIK
B16: antibody 391 (antibody, V domains shown)
VH: EVQLVESGGGLVQPGGSLRLSCAASGFTFSSYWMHWVRQAPGKGLVWVSRINSDGSSTSYADSVKGRFTISRDNAKNTLYLQMNSLRAEDTAVYYCALGPLDIVGSYYYYGMDVWGQGTTVTVSS
VL: NFMLTQPHSVSESPGKTVTISCTGSSGSIASNYVQWYQQRPGSAPTTVIYEDNQRPSGVPDRFSGSIDSSSNSASLTISGLKTEDEADYYCQSYDSSNQDVVFGGGTKLTVL
B17: antibody 449 (antibody, V domains shown)
VH: not shown
VL: QSALTQPASVSGSPGQSITISCTGTSSDVGGYNYVSWYQQHPGKAPKLMIYEVSNRPSGVSNRFSGSKSGNTASLTISGLQAEDEADYYCSSYTSSSTVVFGGGTKLTVL
B18: antibody 433 (antibody, V domains shown)
VH: QVQLVESGGGVVQPGRSLRLSCAASGFTFSSYAMHWVRQAPGKGLEWVAVISYDGSNKYYADSVKGRFTISRDNSKNTLYLQMNSLRAEDTAVYYCAKDYEVVIAIGGPGAFDYWGQGTLVTVSS
VL: SYVLTQPPSVSVAPGKTARITCGGNNIGSKSVHWYQQKPGQAPVLVIYYDSDRPSGIPERFSGSNSGNTATLTISRVEAGDEADYYCQVWDSSSDHVVFGGGTKLTVL
B19: antibody 448 (antibody, V domains shown)
VH: QVQLVQSGAEVKKPGASVKVSCKASGYTFTSYGISWVRQAPGQGLEWMGWISAYNGNTNYAQKLQGRVTMTTDTSTSTAYMELRSLRSDDTAVYYCAIELLEGFYYYYGMDVWGQGTTVTVSS
VL: SYELTQPPSVSVSPGQTARITCSGDALPKQYAYWYQQKPGQAPVLVIYKDSERPSGIPERFSGSSSGTTVTLTISGVQAEDEADYYCQSADSSGTYPYVVFGGGTKLTVL
B20: antibody 415 (antibody, V domains shown)
VH: QVQLVESGGGVVQPGRSLRLSCAASGFTFSSYAMHWVRQAPGKGLEWVAVISYDGSNKYYADSVKGRFTISRDNSKNTLYLQMNSLRAEDTAVYYCAKTRGGSYFDAFDIWGQGTMVTVSS
VL: not shown
B21: antibody 402 (antibody, V domains shown)
VH: QVQLVQSGAEVKKPGASVKVSCKVSGYTLTELSMHWVRQAPGKGLEWMGGFDPEDVETIYAQKFQGRVTMTEDTSTDTAYMELSSLRSEDTAVYYCATGVAVVGTSHSYYYYYGMDVWGQGTTVTVSS
VL: DIQMTQSPSSLSASVGDRVTITCRASQGISNYLAWYQQKPGKVPKLLIYAASTLQSGVPSRFSGSGSGTDFTLTISSLQPEDVATYYCQKYNSAPFTFGPGTKVDIK

The first assay has as its target SARS-CoV-2 spike (S) protein (SARS-CoV-2, UniProt P0DTC2 14-1208).
For B1, the dissociation constant (Kd) was found to be 12.7 nM, the off-rate constant (koff) was found to be 0.000486 s⁻¹ and the kon is 38100 M⁻¹ s⁻¹.

Molecule B2 gave a Kd of 37.4 nM, a koff of 0.000808 s⁻¹ and a kon of 21600 M⁻¹ s⁻¹.

B3 displayed a dissociation constant Kd of 1.4 nM, a koff of 0.000145 s⁻¹ and an on-rate (kon) of 104000 M⁻¹ s⁻¹.

For the molecule B4, the Kd is 6.66 nM, the dissociation rate constant (koff) is 0.000207 s⁻¹ and the kon was 31100 M⁻¹ s⁻¹.

B5 yielded a Kd of 0.837 nM, an off-rate constant (koff) of 6.53e-05 s⁻¹ and a kon of 78000 M⁻¹ s⁻¹.

In the case of B6, the Kd was found to be 1.69 nM, the koff was determined as 0.000487 s⁻¹ and the on-rate constant (kon) is 289000 M⁻¹ s⁻¹.

B7 gave a Kd of 0.441 nM, a dissociation rate constant (koff) of 6.67e-05 s⁻¹ and an on-rate constant (kon) of 151000 M⁻¹ s⁻¹.

The target in another assay is SARS-CoV-2 spike protein (SARS-CoV-2, UniProt P0DTC2 14-1208).
Molecule B8 showed a Kd of 2.05 nM, a koff of 0.000329 s⁻¹ and a kon of 161000 M⁻¹ s⁻¹.

In the case of B9, the Kd was determined as 1.28 nM, the off-rate (koff) was found to be 0.000624 s⁻¹ and the on-rate (kon) was found to be 488000 M⁻¹ s⁻¹.

For the molecule B10, binding was characterised by a dissociation constant (Kd) of 1.32 nM, the dissociation rate constant (koff) was 3.52e-05 s⁻¹ and the association rate constant (kon) was 26600 M⁻¹ s⁻¹.

Molecule B11 gave a Kd of 7.93 nM, an off-rate constant (koff) of 0.000291 s⁻¹ and an on-rate (kon) of 36700 M⁻¹ s⁻¹.

For the molecule B12, the affinity, expressed as Kd, was 3.46 nM; the koff was 0.000318 s⁻¹; the kon amounted to 91900 M⁻¹ s⁻¹.

B13 had a Kd of at most 0.0169 nM, an off-rate constant (koff) of at most 1e-05 s⁻¹ and an on-rate constant (kon) of 591000 M⁻¹ s⁻¹.

On to B14, for which the dissociation constant (Kd) is at most 0.315 nM, the off-rate constant (koff) was at most 1e-05 s⁻¹ and the on-rate (kon) came to 31700 M⁻¹ s⁻¹.

As for B15, the dissociation constant Kd turned out to be 0.313 nM, the koff is 2.95e-05 s⁻¹ and the kon amounted to 94100 M⁻¹ s⁻¹.

With B16, the equilibrium dissociation constant (Kd) was at most 0.37 nM, the koff was at most 1e-05 s⁻¹ and the on-rate (kon) is 27000 M⁻¹ s⁻¹.

Molecule B17 displayed a dissociation constant (Kd) of 9.17 nM, a koff of 0.000526 s⁻¹ and an on-rate constant (kon) of 57400 M⁻¹ s⁻¹.

Regarding B18, the equilibrium dissociation constant (Kd) is 2.8 nM, the koff is 0.000349 s⁻¹ and the association rate constant (kon) was 125000 M⁻¹ s⁻¹.

B19 showed a Kd of 37.5 nM, a koff of 0.000692 s⁻¹ and an on-rate constant (kon) of 18500 M⁻¹ s⁻¹.

B20: the equilibrium dissociation constant (Kd) was at most 0.0125 nM, the dissociation rate constant (koff) was at most 1e-05 s⁻¹ and the association rate constant (kon) is 802000 M⁻¹ s⁻¹.

For the molecule B21, the Kd was determined as 2.14 nM, the dissociation rate constant (koff) was 6.48e-05 s⁻¹ and the association rate constant (kon) was found to be 30400 M⁻¹ s⁻¹.

The term Kd denotes the free concentration of one partner at which half of the binding sites on the other are occupied at equilibrium, for simple one-to-one binding. Low readings indicate higher affinity, high ones lower affinity. For orientation: koff means the rate constant with which the complex falls apart. The low end stands for slow dissociation, the high end for fast dissociation. As usually defined, the kon is the rate constant with which the complex forms. Read a high kon as fast association.
